In the supplement of paper PMC7877785:
± gives the uncertainty stated by the source.

Test: self-splicing fitness, log relative to wild type (ln ratio); higher = more splicing; Tetrahymena group I intron in knt gene, E. coli kanamycin selection, DiMSum; sequences stand for … in CUCUCU…GGAGGGAAAAGUUAUCAGGCAUGCACCUGGUAGCUAGUCUUUAAACCAAUAGAUUGCAUCGGUUUAAAAGGCAAGACCGUCAAAUUGCGGGAAAGGGGUCAACAGCCGUUCAGUACCAAGUCUCAGGGGAAACUUUGAGAUGGCCUUGCAAAGGGUAUGGUAAUAAGCUGACGGACAUGGUCCUAACCACGCAGCCAAGUCCUAAGUCAACAGAUCUUCUGUUGAUAUGGAUGCAGUUCACAGACUAAAUGUCGGUCGGGGAAGAUGUAUUCUUCUCAUAAGAUAUAGUCGGACCUCUCCUUAAUGGGAGCUAGCGGAUGAAGUGAUGCAACACUGGAGCCGCUGGGAACUAAUUUGUAUGCGAAAGUAUAUUGAUUAGUUUUGGAGUACUCGUGGUCG
How it was run: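 A randomised library covering all eight P1ex-region intron nucleotides was built with the intron in the knt kanamycin-resistance gene on pET-22b(+) and held in E. coli BL21(DE3). Cells were grown overnight at 37°C or 30°C on LB agar, with or without 25 μg/mL kanamycin, plus 100 μg/mL carbenicillin, 50 μM IPTG and 0.2% rhamnose, and pooled colonies were amplicon-sequenced on an Illumina HiSeq 2500. DiMSum fitness is the error-weighted combination of wild-type-normalised replicate fold changes, kanamycin versus none.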

Sequence	self-splicing fitness (ln) (30 °C)	self-splicing fitness (ln) (37 °C)
GGUUAGCAAUAUUACGUCUC	-0.348 ± 0.15	-0.0912 ± 0.18
GGUUAGCAAUAUUACGUGAG	-0.894 ± 0.098	-0.197 ± 0.12
GGUUAGCAAUAUUACGUUCC	-1.45 ± 0.11	-0.8 ± 0.12
GGUUAGCAAUAUUACGUUGU	-2.02 ± 0.15	-1.71 ± 0.18
GUAAAGCAAUAUUACGAACA	-0.969 ± 0.15	0.323 ± 0.16
GUAAAGCAAUAUUACGAAGC	-1.89 ± 0.13	-1.83 ± 0.22
GUAAAGCAAUAUUACGACCU	0.443 ± 0.18	0.00961 ± 0.19
GUAAAGCAAUAUUACGACUG	-2.11 ± 0.2	-1.48 ± 0.28
GUAAAGCAAUAUUACGAGGA	-1.81 ± 0.1	-1.52 ± 0.15
GUAAAGCAAUAUUACGAGUU	-1.12 ± 0.093	-0.815 ± 0.12
GUAAAGCAAUAUUACGAUAC	-0.815 ± 0.14	-0.547 ± 0.16
GUAAAGCAAUAUUACGAUUC	0.475 ± 0.08	0.115 ± 0.091
GUAAAGCAAUAUUACGCAAA	-0.784 ± 0.13	-0.594 ± 0.16
GUAAAGCAAUAUUACGCAGU	-2.99 ± 0.18	-1.06 ± 0.16
GUAAAGCAAUAUUACGCAUU	-1.76 ± 0.099	-0.597 ± 0.11
GUAAAGCAAUAUUACGCCGC	-2.48 ± 0.3	-1.92 ± 0.35
GUAAAGCAAUAUUACGCCUU	-1.57 ± 0.11	0.238 ± 0.15
GUAAAGCAAUAUUACGCGUC	-1.05 ± 0.12	-1.3 ± 0.14
GUAAAGCAAUAUUACGCUAA	-1.65 ± 0.087	-0.135 ± 0.11
GUAAAGCAAUAUUACGCUCA	-0.138 ± 0.095	0.776 ± 0.14
GUAAAGCAAUAUUACGGAUU	-0.675 ± 0.079	-0.288 ± 0.1
GUAAAGCAAUAUUACGGUUG	-2.91 ± 0.21	-1.41 ± 0.2
GUAAAGCAAUAUUACGUCAG	-3.53 ± 0.32	-1.83 ± 0.19
GUAAAGCAAUAUUACGUCUA	0.446 ± 0.11	0.0339 ± 0.13
GUACAGCAAUAUUACGACGG	-3.75 ± 0.22	-2.89 ± 0.21
GUACAGCAAUAUUACGAGCA	-1.59 ± 0.13	-1.12 ± 0.13

Sequence	self-splicing fitness (ln) (30 °C)	self-splicing fitness (ln) (37 °C)
GUACAGCAAUAUUACGAUAA	-1.95 ± 0.12	-0.911 ± 0.13
GUACAGCAAUAUUACGCAAC	-2.08 ± 0.18	-0.557 ± 0.17
GUACAGCAAUAUUACGCAAG	-2.59 ± 0.16	-2.08 ± 0.17
GUACAGCAAUAUUACGCAUU	-2.76 ± 0.14	-0.835 ± 0.087
GUACAGCAAUAUUACGCCCA	-1.14 ± 0.4	0.32 ± 0.36
GUACAGCAAUAUUACGCCGA	–	-1.96 ± 0.41
GUACAGCAAUAUUACGCGAA	-2.24 ± 0.13	-2.22 ± 0.14
GUACAGCAAUAUUACGCGAC	-4.09 ± 0.28	-1.87 ± 0.16
GUACAGCAAUAUUACGCGAU	-4.98 ± 0.46	-2.71 ± 0.26
GUACAGCAAUAUUACGCGCU	-1.36 ± 0.13	-0.689 ± 0.19
GUACAGCAAUAUUACGCGGG	-1.5 ± 0.092	-2.71 ± 0.15
GUACAGCAAUAUUACGCUCG	-0.881 ± 0.13	-0.344 ± 0.14
GUACAGCAAUAUUACGCUGC	-4.33 ± 0.26	-2.74 ± 0.3
GUACAGCAAUAUUACGGAAG	-1.45 ± 0.11	-3.01 ± 0.25
GUACAGCAAUAUUACGGACC	-2.76 ± 0.13	-2.1 ± 0.2
GUACAGCAAUAUUACGGGGU	-3.29 ± 0.16	-2.34 ± 0.11
GUACAGCAAUAUUACGGUAA	-0.865 ± 0.13	-0.97 ± 0.12
GUACAGCAAUAUUACGGUUC	-1.29 ± 0.074	-0.703 ± 0.08
GUACAGCAAUAUUACGUCUU	-0.533 ± 0.079	0.628 ± 0.092
GUAGAGCAAUAUUACGAACA	-2.46 ± 0.17	-0.783 ± 0.16
GUAGAGCAAUAUUACGACGU	-0.438 ± 0.16	0.352 ± 0.16
GUAGAGCAAUAUUACGACUG	-1.22 ± 0.15	-1.12 ± 0.24
GUAGAGCAAUAUUACGAGCG	-0.682 ± 0.17	-0.875 ± 0.21
GUAGAGCAAUAUUACGAUAG	-2.06 ± 0.15	-1.42 ± 0.14
GUAGAGCAAUAUUACGAUCU	-0.617 ± 0.12	-0.114 ± 0.15
GUAGAGCAAUAUUACGAUGC	-0.0786 ± 0.15	-0.434 ± 0.13

Sequence	self-splicing fitness (ln) (30 °C)	self-splicing fitness (ln) (37 °C)
GUAGAGCAAUAUUACGCAGC	-0.915 ± 0.17	-2.37 ± 0.22
GUAGAGCAAUAUUACGCCCG	-2.15 ± 0.3	-1.85 ± 0.3
GUAGAGCAAUAUUACGCGCG	-0.605 ± 0.07	-0.12 ± 0.094
GUAGAGCAAUAUUACGGCGC	-0.386 ± 0.18	-0.378 ± 0.22
GUAGAGCAAUAUUACGGCUG	-1.04 ± 0.13	-0.584 ± 0.14
GUAGAGCAAUAUUACGGGAU	-2.01 ± 0.098	-1.19 ± 0.12
GUAGAGCAAUAUUACGGUAC	-1.54 ± 0.12	0.127 ± 0.14
GUAGAGCAAUAUUACGGUGC	-1.15 ± 0.13	-1 ± 0.19
GUAGAGCAAUAUUACGUAAC	-0.96 ± 0.11	-0.246 ± 0.14
GUAGAGCAAUAUUACGUACU	-2.23 ± 0.24	-1.92 ± 0.24
GUAGAGCAAUAUUACGUAGG	-3.28 ± 0.17	-1.96 ± 0.17
GUAGAGCAAUAUUACGUAUG	-3.88 ± 0.22	-3.78 ± 0.23
GUAGAGCAAUAUUACGUCUG	-1.6 ± 0.15	-1.58 ± 0.21
GUAGAGCAAUAUUACGUCUU	-0.122 ± 0.075	0.195 ± 0.083
GUAGAGCAAUAUUACGUUCU	-2.74 ± 0.12	-0.917 ± 0.099
GUAGAGCAAUAUUACGUUGU	-2.53 ± 0.3	-0.699 ± 0.29
GUAUAGCAAUAUUACGAAAU	-3.05 ± 0.25	-1.63 ± 0.22
GUAUAGCAAUAUUACGAAUG	-3 ± 0.24	-2.32 ± 0.28
GUAUAGCAAUAUUACGACGC	-0.42 ± 0.16	0.113 ± 0.18
GUAUAGCAAUAUUACGAGCA	-2.06 ± 0.2	-1.12 ± 0.16
GUAUAGCAAUAUUACGAUGA	-1.62 ± 0.16	-0.697 ± 0.14
GUAUAGCAAUAUUACGCACA	-1.11 ± 0.13	0.279 ± 0.16
GUAUAGCAAUAUUACGCAGA	-2.74 ± 0.32	-2.71 ± 0.34
GUAUAGCAAUAUUACGCCGA	-2.97 ± 0.41	-0.946 ± 0.36
